According to paper PMC9935730:

Biological target: Recombinant full-length Pin1, N-terminally His6-tagged (human) (UniProt Q13526)
Test: SDS-PAGE and western blot; fractions eluted from the HisTrapHP column with imidazole, 15% SDS-PAGE, HRP conjugated anti-His antibody; second band seen in the more concentrated fractions

stoichiometry N: 2
Substance: Recombinant full-length Pin1, N-terminally His6-tagged (from UniProt Q13526 1-163) (enzyme)
